Source: patent US9150634B2, “Epitopes of the human PDGF receptor able to bind human auto-antibodies, antibodies and uses thereof” (priority 2010, dated 2015)

B1: Vlambda16F4: recombinant human monoclonal IgG1, VH PAM paired with Vlambda16F4 VL (SEQ ID No. 7) (antibody, V domains shown)
VH: GLVKPLETLSLTCSVSGGSVSDGSYFWNWIRQPPGKGLEWIGYAYSRGTTNYSPSLKGRITISVDKSKNQISLKLTSVTPADTAVYYCARDSFEIWGQGTMVTV
VL: QSALTQPASVSGSPGQSITISCTGTSSDVGGYNYVSWYQHHPGKAPKLMIYEVSHRPSGVSNRFSGSKSGNTASLTISGLQAEDEADYYCSSYTSSSHVVFGGGTKLTVL
B2: Vk13B8: recombinant human monoclonal IgG1, VH PAM (SEQ ID No. 3) paired with Vk13B8 VL (SEQ ID No. 4); non-agonistic anti-PDGFR alpha (antibody, listed as Homo sapiens, V domains shown)
VH: B1 VH
VL: DIQMTQSPSSLSASVGDRVTITCRASQGISNYLAWFQQKPGKAPKSLIYAASSLQSGVPSKFSGSGSGTDFTLTISSLQPEDFATYYCQQYNSFPYTFGQGTKLEIK

Key:
normal human fibroblasts [1] = assay: type I collagen gene transcription in normal human fibroblasts (real-time PCR); format: cell-based; conditions: time course
From the text: (§1) FIG. 5 Characterization of recombinant human monoclonal auto-antibodies (rHumaab). IgG were affinity-purified from serum-free supernatants of CHO cells stably transfected with each of the four rHumaab constructs and used (10 micrograms/ml) in four independent assays. Each result is representative of three experiments performed under the same conditions. (a) Vk13B8, Vk16F4 and Vlambda16F4, but not Vlambda13B8 rHumaab, immunoprecipitated PDGFR alpha from normal human fibroblast extracts. A mouse monoclonal anti-PDGFR alpha antibody was used as positive control. Immunoprecipitated PDGFR alpha was visualized by immunoblotting with rabbit anti-PDGFR alpha antibody-HRP. (b-c) Vk16F4 and Vlambda16F4, but not Vk13B8 and Vlambda13B8 rHumaab, induced (b) ROS production and (c) increased ERK phosphorylation (p-ERK) in normal human fibroblasts after 15 minutes incubation. […] Intracellular ROS production was measured by DCFH-DA fluorescence. […] Type I A1 and A2 collagen gene expression was measured by quantitative real-time PCR in RNA extracted from fibroblasts at baseline and after stimulation with the indicated reagents. […] Mouse collagen gene expression was measured by quantitative real-time PCR in RNA extracted from F alpha and F−/− fibroblasts at baseline and after 1 hour stimulation with Vk16F4 rHumaab or human PDGF-BB. […]

PDGFR alpha [2] = target: T1, PDGFR alpha (Homo sapiens, UniProt P16234); assay: optical biosensor binding to immobilized His-tagged PDGFR alpha; parameters: cDNA encoding aminoacids 1-834 of human PDGFR alpha; made in house
Protocol: A detailed characterization of rHumaab interaction with human PDGFR alpha was performed on an optical biosensor, using as a molecular bait a homemade truncated conformer of this receptor containing the complete extracellular and transmembrane regions joined to a poly-histidine tail (HIS tag) replacing part of the intracellular domain, and serving both as an anchor to the biosensor surface and as a spacer. Preservation of proper folding of the immobilized receptor into a naïve-like conformation was verified by monitoring the interaction with its natural binding partner (PDGF-BB) and with two mouse monoclonal antibodies specific for conformational PDGFR alpha epitopes (FIG. 6a). Using this approach, both kinetics and equilibrium parameters of the interaction between PDGF-BB, each rHumaab and PDGFR alpha were determined. […] Additionally, the analysis of association and dissociation rate constants for soluble ligands binding to PDGFR alpha, further defined the mechanistic properties of the macromolecular recognition process. […]
cDNA encoding aminoacids 1-834 of human PDGFR alpha was inserted in the pcDNA V5 HIS A vector (Invitrogen), in order to fuse the COOH— terminal of the protein with a 6× histidine tag. […] Presence of a single His-tagged PDGFR alpha product in eluted fractions was evaluated by immunoblotting with specific anti-PDGFR alpha (R&D Biosystems) and anti-histidine (Sigma-Aldrich) monoclonal antibodies. […]
[…] For binding assays, monophasic time courses were always reported upon addition of soluble rHumaab (the validity of the monophasic model in fitting each time course was assessed according to a standard F-test procedure, with the biphasic model being statistically nonsignificant at 95% confidence) (Bevington P R and Robinson D K. McGraw-Hill Book Company, New York. 1992).
Target sequence in this assay (P16234 24-834): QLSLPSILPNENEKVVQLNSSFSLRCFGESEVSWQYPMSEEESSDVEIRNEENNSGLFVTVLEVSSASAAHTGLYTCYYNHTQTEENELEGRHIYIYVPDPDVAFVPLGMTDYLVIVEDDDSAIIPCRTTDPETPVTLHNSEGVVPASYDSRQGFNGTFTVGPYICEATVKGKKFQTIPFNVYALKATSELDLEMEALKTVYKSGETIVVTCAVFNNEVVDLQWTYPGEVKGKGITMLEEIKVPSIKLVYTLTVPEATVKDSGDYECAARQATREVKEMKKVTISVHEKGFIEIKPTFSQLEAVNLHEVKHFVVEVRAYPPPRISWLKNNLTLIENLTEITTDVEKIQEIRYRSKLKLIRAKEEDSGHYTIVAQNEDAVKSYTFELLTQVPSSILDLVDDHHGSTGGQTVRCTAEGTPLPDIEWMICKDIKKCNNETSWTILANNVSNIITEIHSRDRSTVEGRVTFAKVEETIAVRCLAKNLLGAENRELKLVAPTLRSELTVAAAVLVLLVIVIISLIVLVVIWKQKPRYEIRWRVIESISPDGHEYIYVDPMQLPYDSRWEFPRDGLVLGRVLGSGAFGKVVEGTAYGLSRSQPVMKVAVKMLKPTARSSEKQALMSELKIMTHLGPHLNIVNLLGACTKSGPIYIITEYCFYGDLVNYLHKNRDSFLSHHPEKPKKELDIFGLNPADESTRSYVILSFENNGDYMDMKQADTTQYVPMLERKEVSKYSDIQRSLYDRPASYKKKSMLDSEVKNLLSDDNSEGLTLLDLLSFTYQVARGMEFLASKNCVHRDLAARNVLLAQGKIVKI

PDGFR alpha [3] = target: T1, PDGFR alpha; assay: immunoprecipitation and immunoblotting of PDGFR alpha from human fibroblast extracts; format: binding; parameters: 100 micrograms of total protein from human fibroblast extract; endogenous in cells; host or cells: normal human (skin) fibroblasts, total cell extract; conditions: normal human fibroblast extracts; 10 micrograms/ml
Protocol: Immunoprecipitating antibodies were individually incubated for 4 hours at 4° C. with an aliquot of 100 micrograms of total protein from human fibroblast extract. The reaction mixture was adjusted to a final volume of 500 microliters with assay buffer (PBS, 1% Nonidet P-40, 0.5% sodium deoxycholate, 1 mM PMSF). Rabbit anti-PDGFR alpha antibody and rabbit IgG (Santa Cruz), IgG purified from EBV-transformed B cell culture supernatants and rHumaab were used at 10 micrograms/ml, total IgG purified from serum of SSc patients and healthy subjects at 200 micrograms/ml. Then, 20 microliters agarose-Protein A/G (Santa Cruz) were added to the antibody-cell extract mixture and incubated overnight under rotation at 4° C. After centrifugation and extensive washing, immunoprecipitates were suspended in 20 microliters of loading buffer (150 mM Tris-HCl, pH 6.8/6% SDS/0.3% bromophenol blue/30% glycerol) and heated to 100° C. for 10 minutes prior to immunoblotting with a commercial rabbit anti-PDGFR alpha antibody (Santa Cruz).
Target sequence in this assay (P16234 24-1089): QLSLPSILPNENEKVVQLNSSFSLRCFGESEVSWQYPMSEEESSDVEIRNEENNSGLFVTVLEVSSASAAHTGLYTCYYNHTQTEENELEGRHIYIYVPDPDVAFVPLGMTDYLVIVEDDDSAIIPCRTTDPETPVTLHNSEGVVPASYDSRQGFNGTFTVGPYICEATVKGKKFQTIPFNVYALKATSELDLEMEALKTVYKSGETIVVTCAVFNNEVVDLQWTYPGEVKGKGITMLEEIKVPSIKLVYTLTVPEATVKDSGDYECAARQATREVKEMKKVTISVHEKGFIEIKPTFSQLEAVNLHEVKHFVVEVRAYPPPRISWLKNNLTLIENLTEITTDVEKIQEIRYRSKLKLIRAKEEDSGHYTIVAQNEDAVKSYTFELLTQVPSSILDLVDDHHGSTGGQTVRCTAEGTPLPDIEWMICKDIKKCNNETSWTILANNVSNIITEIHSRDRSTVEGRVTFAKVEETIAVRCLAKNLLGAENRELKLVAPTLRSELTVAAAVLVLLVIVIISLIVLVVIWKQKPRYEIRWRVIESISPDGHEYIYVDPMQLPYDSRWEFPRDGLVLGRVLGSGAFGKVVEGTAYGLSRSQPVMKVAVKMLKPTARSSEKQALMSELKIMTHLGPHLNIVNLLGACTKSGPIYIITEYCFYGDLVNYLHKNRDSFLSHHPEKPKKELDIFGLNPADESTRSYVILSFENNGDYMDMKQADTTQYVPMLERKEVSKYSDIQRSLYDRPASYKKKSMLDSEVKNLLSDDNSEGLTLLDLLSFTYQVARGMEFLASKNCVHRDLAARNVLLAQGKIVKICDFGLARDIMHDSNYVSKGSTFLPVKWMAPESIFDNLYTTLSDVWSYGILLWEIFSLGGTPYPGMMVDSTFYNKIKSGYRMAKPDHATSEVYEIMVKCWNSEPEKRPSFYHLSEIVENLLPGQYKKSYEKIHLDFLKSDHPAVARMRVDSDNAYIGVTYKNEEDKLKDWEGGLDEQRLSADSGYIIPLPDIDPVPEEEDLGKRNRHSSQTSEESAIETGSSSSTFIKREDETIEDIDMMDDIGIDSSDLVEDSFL

normal human fibroblasts [4] = assay: ROS production in normal human fibroblasts (DCFH-DA fluorescence); format: cell-based; conditions: 10 micrograms/ml, 15 minutes incubation
From the text: as §1

normal human fibroblasts [5] = assay: ERK phosphorylation (p-ERK immunoblot) in normal human fibroblasts; format: cell-based; conditions: 10 micrograms/ml, 15 minutes incubation
From the text: as §1

PDGFR alpha [6] = target: T1, PDGFR alpha; assay: competitive binding on optical biosensor; parameters: cDNA encoding aminoacids 1-834 of human PDGFR alpha; made in house; conditions: immobilized His-tagged PDGFR alpha saturated with molar excess of PDGF-BB
Protocol: To draw a map of the PDGFR alpha epitopes recognized by the rHumaab, competitive binding experiments were performed on the optical biosensor platform, where the surface of immobilized HIS-tagged PDGFR alpha was saturated with PDGF-BB prior to the addition of each rHumaab.
Binding assays were performed on a IAsys plus biosensor. The carboxylate surface was equilibrated with PBS buffer, and activated by addition of an equimolar mixture of N-hydroxysuccinimide and N-ethyl-N-(dimethylaminopropyl) carbodiimide hydrochloride following the standard procedure (Davies, R J et al. Academic Press: San Diego, 1994).
Next, His-tagged PDGFR alpha (200 micrograms/mL) was incubated over the surface for 20 min, and free carboxylic sites on the sensor surface were deactivated by injection of 1M ethanolamine, pH 8.5. Finally, the surface was re-equilibrated with PBS. rHumaab and PDGF-BB were added at different concentrations, and association kinetics were followed up to equilibrium, whereas dissociation steps and surface regeneration were performed by addition of fresh buffer, each time assessing the baseline recovery prior to any new addition of ligand. Kinetic and equilibrium parameters were derived from global fit of raw data both to mono- and bi-exponential models (Cuccioloni M et al. J Lipid Res 2011; 52 (5): 897-907).
Target sequence in this assay (P16234 24-834): as the sequence (P16234 24-834) above

Molecule	duration of collagen gene stimulation (normal human fibroblasts [1])	kass (association rate constant) (PDGFR alpha [2])	immunoprecipitation of PDGFR alpha (PDGFR alpha [3])	ROS production (normal human fibroblasts [4])	ERK phosphorylation (p-ERK) (normal human fibroblasts [5])	kdiss (dissociation rate constant) (PDGFR alpha [2])	binding to PDGFR alpha pre-saturated with PDGF-BB (PDGFR alpha [6])
PDGF-BB: human PDGF-BB, natural binding partner (physiological ligand) of PDGFR alpha [reference compound]	up to 6 hours	3e+07 M⁻¹ s⁻¹					
B1			specifically bound	induced	increased	0.003 s⁻¹	
B2			specifically bound			0.035 s⁻¹	bound
